Data published in the supplement of paper PMC11246515.
± gives the standard deviation of the averaged measurements.

Assay: total protein half-life in vivo (active degradation + dilution); higher = more stable protein
[1] = E. coli NCM3722 delta-clpP delta-lon delta-hslV, growth: N-lim chemostat, doubling time 6 h
[2] = E. coli NCM3722 delta-clpP, growth: N-lim chemostat, doubling time 6 h
[3] = E. coli NCM3722 delta-hslV, growth: N-lim chemostat, doubling time 6 h
[4] = E. coli NCM3722 delta-lon, growth: N-lim chemostat, doubling time 6 h
[5] = E. coli NCM3722 delta-smpB, growth: N-lim chemostat, doubling time 6 h
[6] = wild type E. coli NCM3722, growth: C-lim chemostat, doubling time 3 h
[7] = wild type E. coli NCM3722, growth: C-lim chemostat, doubling time 6 h
[8] = wild type E. coli NCM3722, growth: C-lim chemostat, doubling time 12 h
[9] = wild type E. coli NCM3722, growth: N-lim chemostat, doubling time 6 h
[10] = wild type E. coli NCM3722, growth: P-lim chemostat, doubling time 6 h
[11] = wild type E. coli NCM3722, growth: N-lim chemostat, doubling time 12 h
[12] = wild type E. coli NCM3722, growth: P-lim chemostat, doubling time 12 h

Sequence	total protein half-life in vivo [1] [h]	total protein half-life in vivo [2] [h]	total protein half-life in vivo [3] [h]	total protein half-life in vivo [4] [h]	total protein half-life in vivo [5] [h]	total protein half-life in vivo [6] [h]	total protein half-life in vivo [7] [h]	total protein half-life in vivo [8] [h]	total protein half-life in vivo [9] [h]	total protein half-life in vivo [10] [h]	total protein half-life in vivo [11] [h]	total protein half-life in vivo [12] [h]
MNIEELKKQAETEIADFIAQKIAELNKNTGKEVSEIRFTAREKMTGLESYDVKIKIM [P0AC92]	> 8	5.88 ± 0.43	6.62 ± 0.26	6.72 ± 0.85	5.86 ± 0.59	2.98 ± 0.29	4.55 ± 2.8	10 ± 1.4	5.99 ± 1.4	6.14		
MNIELRHLRYFVAVAEELHFGRAAARLNISQPPLSQQIQALEQQIGARLLARTNRSVLLTAAGKQFLADSRQILSMVDDAAARAERLHQGEAGELRIGFTSSAPFIRAVSDTLSLFRRDYPDVHLQTREMNTREQIAPLIEGTLDMGLLRNTALPESLEHAVIVHEPLMAMIPHDHPLANNPNVTLAELAKEPFVFFDPHVGTGLYDDILGLMRRYHLTPVITQEVGEAMTIIGLVSAGLGVSILPASFKRVQLNEMRWVPIAEEDAVSEMWLVWPKHHEQSPAARNFRIHLLNALR	6 ± 0.22	5.84 ± 0.3	6.28 ± 0.17	5.5 ± 0.23	5.65 ± 0.16		6.3 ± 1.5	11.97 ± 0.024	6.8 ± 0.96	5.12 ± 0.62	12.5 ± 1.8	13.3 ± 0.86
MNIFEQTPPNRRRYGLAAFIGLIAGVVSAFVKWGAEVPLPPRSPVDMFNAACGPESLIRAAGQIDCSRNFLNPPYIFLRDWLGLTDPNAAVYTFAGHVFNWVGVTHIIFSIVFAVGYCVVAEVFPKIKLWQGLLAGALAQLFVHMISFPLMGLTPPLFDLPWYENVSEIFGHLVWFWSIEIIRRDLRNRITHEPDPEIPLGSNR [P0AAA1]	6.706 ± 0.025			6.72 ± 0.32	6.16 ± 0.29	3.21 ± 0.28	6.707 ± 0.0077	14.5 ± 0.3	5.96 ± 0.12	6.57 ± 1.5		13.7 ± 1.1
MNIFTEAAKLEEQNCPFAMAQIVDSRGSTPRHSAQMLVRADGSIVGTIGGGMVERKVIEESLQALQERKPRLFHGRMARNGADAVGSDCGGAMSVFISVHGMRPRLVLIGAGHVNRAIAQSAALLGFDIAVADIYRESLNPELFPPSTTLLHAESFGAAVEALDIRPDNFVLIATNNQDREALDKLIEQPIAWLGLLASRRKVQLFLRQLREKGVAEEHIARLHAPVGYNIGAETPQEIAISVLAEILQVKNNAPGGLMMKPSHPSGHQLVVIRGAGDIASGVALRLYHAGFKVIMLEVEKPTVIRCTVAFAQAVFDGEMTVEGVTARLATSSAEAMKLTERGFIPVMVDPACSLLDELKPLCVVDAILAKQNLGTRADMAPVTIALGPGFTAGKDCHAVIETNRGHWLGQVIYSGCAQENTGVPGNIMGHTTRRVIRAPAAGIMRSNVKLGDLVKEGDVIAWIGEHEIKAPLTGMVRGLLNDGLAVVGGFKIGDIDPRGETADFTSVSDKARAIGGGVLEALMMLMHQGVKATKEVLEVA	5.14 ± 0.82	1.65 ± 0.36									1.22	
MNIIAIMGPHGVFYKDEPIKELESALVAQGFQIIWPQNSVDLLKFIEHNPRICGVIFDWDEYSLDLCSDINQLNEYLPLYAFINTHSTMDVSVQDMRMALWFFEYALGQAEDIAIRMRQYTDEYLDNITPPFTKALFTYVKERKYTFCTPGHMGGTAYQKSPVGCLFYDFFGGNTLKADVSISVTELGSLLDHTGPHLEAEEYIARTFGAEQSYIVTNGTSTSNKIVGMYAAPSGSTLLIDRNCHKSLAHLLMMNDVVPVWLKPTRNALGILGGIPRREFTRDSIEEKVAATTQAQWPVHAVITNSTYDGLLYNTDWIKQTLDVPSIHFDSAWVPYTHFHPIYQGKSGMSGERVAGKVIFETQSTHKMLAALSQASLIHIKGEYDEEAFNEAFMMHTTTSPSYPIVASVETAAAMLRGNPGKRLINRSVERALHFRKEVQRLREESDGWFFDIWQPPQVDEAECWPVAPGEQWHGFNDADADHMFLDPVKVTILTPGMDEQGNMSEEGIPAALVAKFLDERGIVVEKTGPYNLLFLFSIGIDKTKAMGLLRGLTEFKRSYDLNLRIKNMLPDLYAEDPDFYRNMRIQDLAQGIHKLIRKHDLPGLMLRAFDTLPEMIMTPHQAWQRQIKGEVETIALEQLVGRVSANMILPYPPGVPLLMPGEMLTKESRTVLDFLLMLCSVGQHYPGFETDIHGAKQDEDGVYRVRVLKMAG		5.56 ± 0.19	5.32 ± 0.2	5.36 ± 0.26	5.38 ± 0.089	3.21 ± 0.1	7.21 ± 0.98	10.7 ± 3.7	6.16 ± 1.5	6.88 ± 1.5	10.7 ± 0.83	11.92 ± 0.053
MNILGFFQRLGRALQLPIAVLPVAALLLRFGQPDLLNVAFIAQAGGAIFDNLALIFAIGVASSWSKDSAGAAALAGAVGYFVLTKAMVTINPEINMGVLAGIITGLVGGAAYNRWSDIKLPDFLSFFGGKRFVPIATGFFCLVLAAIFGYVWPPVQHAIHAGGEWIVSAGALGSGIFGFINRLLIPTGLHQVLNTIAWFQIGEFTNAAGTVFHGDINRFYAGDGTAGMFMSGFFPIMMFGLPGAALAMYFAAPKERRPMVGGMLLSVAVTAFLTGVTEPLEFLFMFLAPLLYLLHALLTGISLFVATLLGIHAGFSFSAGAIDYALMYNLPAASQNVWMLLVMGVIFFAIYFVVFSLVIRMFNLKTPGREDKEDEIVTEEANSNTEEGLTQLATNYIAAVGGTDNLKAIDACITRLRLTVADSARVNDTMCKRLGASGVVKLNKQTIQVIVGAKAESIGDAMKKVVARGPVAAASAEATPATAAPVAKPQAVPNAVSIAELVSPITGDVVALDQVPDEAFASKAVGDGVAVKPTDKIVVSPAAGTIVKIFNTNHAFCLETEKGAEIVVHMGIDTVALEGKGFKRLVEEGAQVSAGQPILEMDLDYLNANARSMISPVVCSNIDDFSGLIIKAQGHIVAGQTPLYEIKK	6.3 ± 0.38	6.68 ± 1.1	6.55 ± 1.2	5.86 ± 0.12	5.83 ± 0.32	3.142 ± 0.004	5.88 ± 0.17	11.9 ± 1.4	5.91 ± 0.66	6.04 ± 0.14	11.5 ± 0.56	12.6 ± 0.78
